Reference: PMC7260706

Biological target: T1, RelE (UniProt P0C077 1-95)
T1 sequence: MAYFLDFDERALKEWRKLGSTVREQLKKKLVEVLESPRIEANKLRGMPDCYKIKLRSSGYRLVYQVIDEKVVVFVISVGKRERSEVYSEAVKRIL
Assay: intrinsic protein fluorescence

GGCAAGGAGGUAAAAAUGUAGAAAAACAAU (ssRNA) [unmodified mRNA]
binding result: binds
